Data on one substance can be found in patent publication US20230302054A1.

The target in the assay is CD19 antigen on NALM-6 tumor cells (pre-B cell leukemia) (human) (UniProt P15391). As to the kind of experiment: cell-based or functional assay.
Sequence of CD19 antigen on NALM-6 tumor cells (pre-B cell leukemia) (human) (P15391 20-556): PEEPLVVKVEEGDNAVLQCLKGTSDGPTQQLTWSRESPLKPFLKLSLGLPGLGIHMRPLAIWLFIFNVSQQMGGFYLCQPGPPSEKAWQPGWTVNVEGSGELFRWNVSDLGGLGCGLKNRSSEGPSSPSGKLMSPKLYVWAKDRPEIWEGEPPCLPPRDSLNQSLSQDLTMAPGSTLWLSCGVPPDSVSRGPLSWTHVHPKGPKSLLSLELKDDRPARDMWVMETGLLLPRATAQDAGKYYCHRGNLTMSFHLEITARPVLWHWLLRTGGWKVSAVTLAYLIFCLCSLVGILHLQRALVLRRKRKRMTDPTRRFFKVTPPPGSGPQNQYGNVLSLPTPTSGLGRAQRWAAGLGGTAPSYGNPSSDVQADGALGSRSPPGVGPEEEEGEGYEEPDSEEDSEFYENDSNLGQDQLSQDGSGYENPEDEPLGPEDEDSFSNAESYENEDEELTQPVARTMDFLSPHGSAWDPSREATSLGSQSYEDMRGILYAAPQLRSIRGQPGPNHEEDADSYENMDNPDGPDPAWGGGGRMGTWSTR

For “Anti-hCD19-CD3 bispecific T cell engager (BiTE) (InvivoGen, #bimab-hcd19cd3) (bispecific antibody)”, the BiTE-mediated NALM-6 tumor killing (luciferase-based readout, Bcl-xL-transfected CD8+ T cells as effectors) is above 95%.
